Assay results: IntAct's records for PubMed 35512704

B1: Mothers against decapentaplegic homolog 4 (Homo sapiens), Q13485 (parent)
chain: MDNMSITNTPTSNDACLSIVHSLMCHRQGGESETFAKRAIESLVKKLKEKKDELDSLITAITTNGAHPSKCVTIQRTLDGRLQVAGRKGFPHVIYARLWRWPDLHKNELKHVKYCQYAFDLKCDSVCVNPYHYERVVSPGIDLSGLTLQSNAPSSMMVKDEYVHDFEGQPSLSTEGHSIQTIQHPPSNRASTETYSTPALLAPSESNATSTANFPNIPVASTSQPASILGGSHSEGLLQIASGPQPGQQQNGFTGQPATYHHNSTTTWTGSRTAPYTPNLPHHQNGHLQHHPPMPPHPGHYWPVHNELAFQPPISNHPAPEYWCSIAYFEMDVQVGETFKVPSSCPIVTVDGYVDPSGGDRFCLGQLSNVHRTEAIERARLHIGKGVQLECKGEGDVWVRCLSDHAVFVQSYYLDREAGRAPGDAVHKIYPSAYIKVFDLRQCHRQMQQQAATAQAAAAAQAAAVAGNIPGPGSVGGIAPAISLSAAAGIGVDDLRRLCILRMSFVKGWGPDYPRQSIKETPCWIEIHLHRALQLLDEVLHTMPIADPQPLD

Variants of: B1
Details: with keap1_human KEAP1, Q14145

effect of a mutation on the interaction	Variant
with no effect	D351H

Variants of: B1
Details: with klf4_human KLF4, O43474

effect of a mutation on the interaction	Variant
with no effect	D351H

Variants of: B1
Details: with maga6_human MAGEA6, P43360

effect of a mutation on the interaction	Variant
with no effect	D351H

Variants of: B1
Details: with mp2k7_human MAP2K7, O14733

effect of a mutation on the interaction	Variant
with no effect	D351H

Variants of: B1
Details: with m3k1_human MAP3K1, Q13233

effect of a mutation on the interaction	Variant
with no effect	D351H

Variants of: B1
Details: with mk10_human MAPK10, P53779

effect of a mutation on the interaction	Variant
with no effect	D351H

Variants of: B1
Details: with mk14_human MAPK14, Q16539

effect of a mutation on the interaction	Variant
with no effect	D351H

Variants of: B1
Details: with mk03_human MAPK3, P27361

effect of a mutation on the interaction	Variant
with no effect	D351H

Variants of: B1
Details: with mk04_human MAPK4, P31152

effect of a mutation on the interaction	Variant
with no effect	D351H

Variants of: B1
Details: with mk06_human MAPK6, Q16659

effect of a mutation on the interaction	Variant
with no effect	D351H

Variants of: B1
Details: with mcl1_human MCL1, Q07820

effect of a mutation on the interaction	Variant
with no effect	D351H

Variants of: B1
Details: with mitf_human MITF

effect of a mutation on the interaction	Variant
with no effect	D351H

Variants of: B1
Details: with myc_human MYC

effect of a mutation on the interaction	Variant
with no effect	D351H

Variants of: B1
Details: with nck2_human NCK2, O43639

effect of a mutation on the interaction	Variant
with no effect	D351H

Variants of: B1
Details: with nf1_human NF1, P21359

effect of a mutation on the interaction	Variant
with no effect	D351H

Variants of: B1
Details: with merl_human NF2, P35240

effect of a mutation on the interaction	Variant
with no effect	D351H

Variants of: B1
Details: with nfic_human NFIC

effect of a mutation on the interaction	Variant
with no effect	D351H

Variants of: B1
Details: with notc2_human NOTCH2, Q04721

effect of a mutation on the interaction	Variant
with no effect	D351H

Variants of: B1
Details: with ntrk2_human NTRK2, Q16620

effect of a mutation on the interaction	Variant
with no effect	D351H

Variants of: B1
Details: with ntrk3_human NTRK3, Q16288

effect of a mutation on the interaction	Variant
with no effect	D351H

Variants of: B1
Details: with pak3_human PAK3, O75914

effect of a mutation on the interaction	Variant
with no effect	D351H

Variants of: B1
Details: with prkn_human PRKN

effect of a mutation on the interaction	Variant
with no effect	D351H

Variants of: B1
Details: with pax5_human PAX5, Q02548

effect of a mutation on the interaction	Variant
with no effect	D351H

Variants of: B1
Details: with pax9_human PAX9, P55771

effect of a mutation on the interaction	Variant
with no effect	D351H

Variants of: B1
Details: with pcbp1_human PCBP1, Q15365

effect of a mutation on the interaction	Variant
with no effect	D351H

Variants of: B1
Details: with pgfra_human PDGFRA

effect of a mutation on the interaction	Variant
with no effect	D351H

Variants of: B1
Details: with pgfrb_human PDGFRB

effect of a mutation on the interaction	Variant
with no effect	D351H

Variants of: B1
Details: with pdk1_human PDK1, Q15118

effect of a mutation on the interaction	Variant
with no effect	D351H

Variants of: B1
Details: with PIK3C2B

effect of a mutation on the interaction	Variant
with no effect	D351H

Variants of: B1
Details: with pk3c3_human PIK3C3, Q8NEB9

effect of a mutation on the interaction	Variant
with no effect	D351H

Variants of: B1
Details: with pk3ca_human PIK3CA

effect of a mutation on the interaction	Variant
with no effect	D351H

Variants of: B1
Details: with pk3cb_human PIK3CB

effect of a mutation on the interaction	Variant
with no effect	D351H

Variants of: B1
Details: with pk3cg_human PIK3CG

effect of a mutation on the interaction	Variant
with no effect	D351H

Variants of: B1
Details: with p85a_human PIK3R1, P27986

effect of a mutation on the interaction	Variant
with no effect	D351H

Variants of: B1
Details: with p85b_human PIK3R2, O00459

effect of a mutation on the interaction	Variant
with no effect	D351H

Variants of: B1
Details: with dpod1_human POLD1, P28340

effect of a mutation on the interaction	Variant
with no effect	D351H

Variants of: B1
Details: with dpoe1_human POLE

effect of a mutation on the interaction	Variant
with no effect	D351H

Variants of: B1
Details: with lipa1_human PPFIA1, Q13136

effect of a mutation on the interaction	Variant
with no effect	D351H

Variants of: B1
Details: with 2aaa_human PPP2R1A

effect of a mutation on the interaction	Variant
with no effect	D351H

Variants of: B1
Details: with prdm1_human PRDM1, O75626

effect of a mutation on the interaction	Variant
with no effect	D351H

Variants of: B1
Details: with aapk2_human PRKAA2, P54646

effect of a mutation on the interaction	Variant
with no effect	D351H

Variants of: B1
Details: with prss8_human PRSS8, Q16651

effect of a mutation on the interaction	Variant
with no effect	D351H

Variants of: B1
Details: with ptk6_human PTK6, Q13882

effect of a mutation on the interaction	Variant
with no effect	D351H

Variants of: B1
Details: with tf65_human RELA

effect of a mutation on the interaction	Variant
with no effect	D351H

Variants of: B1
Details: with rnf43_human RNF43, Q68DV7

effect of a mutation on the interaction	Variant
with no effect	D351H

Variants of: B1
Details: with ros1_human ROS1, P08922

effect of a mutation on the interaction	Variant
with no effect	D351H

Variants of: B1
Details: with rl5_human RPL5, P46777

effect of a mutation on the interaction	Variant
with no effect	D351H

Variants of: B1
Details: with runx1_human RUNX1, Q01196

effect of a mutation on the interaction	Variant
with no effect	D351H

Variants of: B1
Details: with ruvb1_human RUVBL1, Q9Y265

effect of a mutation on the interaction	Variant
with no effect	D351H

Variants of: B1
Details: with sdha_human SDHA

effect of a mutation on the interaction	Variant
with no effect	D351H

Variants of: B1
Details: with sf3b1_human SF3B1, O75533

effect of a mutation on the interaction	Variant
with no effect	D351H

Variants of: B1
Details: with skp2_human SKP2, Q13309

effect of a mutation on the interaction	Variant
with no effect	D351H

Variants of: B1
Details: with smad1_human SMAD1, Q15797

effect of a mutation on the interaction	Variant
with no effect	D351H

Variants of: B1
Details: with smad2_human SMAD2, Q15796

effect of a mutation on the interaction	Variant
with no effect	D351H

Variants of: B1
Details: with smad3_human SMAD3, P84022

effect of a mutation on the interaction	Variant
with no effect	D351H

Variants of: B1
Details: with smca4_human SMARCA4, P51532

effect of a mutation on the interaction	Variant
with no effect	D351H

Variants of: B1
Details: with snf5_human SMARCB1, Q12824

effect of a mutation on the interaction	Variant
with no effect	D351H

Variants of: B1
Details: with smo_human SMO

effect of a mutation on the interaction	Variant
with no effect	D351H

Variants of: B1
Details: with sox10_human SOX10, P56693

effect of a mutation on the interaction	Variant
with no effect	D351H

Variants of: B1
Details: with sox2_human SOX2, P48431

effect of a mutation on the interaction	Variant
with no effect	D351H

Variants of: B1
Details: with sox3_human SOX3, P41225

effect of a mutation on the interaction	Variant
with no effect	D351H

Variants of: B1
Details: with sox4_human SOX4, Q06945

effect of a mutation on the interaction	Variant
with no effect	D351H

Variants of: B1
Details: with sox9_human SOX9, P48436

effect of a mutation on the interaction	Variant
with no effect	D351H

Variants of: B1
Details: with spop_human SPOP

effect of a mutation on the interaction	Variant
with no effect	D351H

Variants of: B1
Details: with src_human SRC

effect of a mutation on the interaction	Variant
with no effect	D351H

Variants of: B1
Details: with stat3_human STAT3, P40763

effect of a mutation on the interaction	Variant
with no effect	D351H

Variants of: B1
Details: with stk38_human STK38, Q15208

effect of a mutation on the interaction	Variant
with no effect	D351H

Variants of: B1
Details: with ksyk_human SYK

effect of a mutation on the interaction	Variant
with no effect	D351H

Variants of: B1
Details: with eloc_human ELOC

effect of a mutation on the interaction	Variant
with no effect	D351H

Variants of: B1
Details: with tfe2_human TCF3, P15923

effect of a mutation on the interaction	Variant
with no effect	D351H

Variants of: B1
Details: with tead1_human TEAD1, P28347

effect of a mutation on the interaction	Variant
with no effect	D351H

Variants of: B1
Details: with tead2_human TEAD2, Q15562

effect of a mutation on the interaction	Variant
with no effect	D351H

Variants of: B1
Details: with tead3_human TEAD3, Q99594

effect of a mutation on the interaction	Variant
with no effect	D351H

Variants of: B1
Details: with tert_human TERT

effect of a mutation on the interaction	Variant
with no effect	D351H

Variants of: B1
Details: with tgfr2_human TGFBR2, P37173

effect of a mutation on the interaction	Variant
with no effect	D351H

Variants of: B1
Details: with tnr14_human TNFRSF14, Q92956

effect of a mutation on the interaction	Variant
with no effect	D351H

Variants of: B1
Details: with tpx2_human TPX2, Q9ULW0

effect of a mutation on the interaction	Variant
with no effect	D351H

Variants of: B1
Details: with tsc2_human TSC2, P49815

effect of a mutation on the interaction	Variant
with no effect	D351H

Variants of: B1
Details: with tshr_human TSHR

effect of a mutation on the interaction	Variant
with no effect	D351H

Variants of: B1
Details: with vegfa_human VEGFA

effect of a mutation on the interaction	Variant
with no effect	D351H

Variants of: B1
Details: with vhl_human VHL

effect of a mutation on the interaction	Variant
with no effect	D351H

Variants of: B1
Details: with wt1_human WT1, P19544

effect of a mutation on the interaction	Variant
with no effect	D351H

Variants of: B1
Details: with wwtr1_human WWTR1, Q9GZV5

effect of a mutation on the interaction	Variant
with no effect	D351H

Variants of: B1
Details: with xpo1_human XPO1, O14980

effect of a mutation on the interaction	Variant
with no effect	D351H

Variants of: B1
Details: with 1433b_human YWHAB

effect of a mutation on the interaction	Variant
with no effect	D351H

Variants of: B1
Details: with 1433e_human YWHAE

effect of a mutation on the interaction	Variant
with no effect	D351H

Variants of: B1
Details: with 1433z_human YWHAZ

effect of a mutation on the interaction	Variant
with no effect	D351H

Variants of: B1
Details: with arc1a_human ARPC1A

effect of a mutation on the interaction	Variant
causing an interaction	D351H
